Patent publication US20020045192A1, “Arf and HDM2 interaction domains and methods of use thereof” (St. Jude Children's Research Hospital, priority 2001, published 2002)
“Also recorded” adds a separate entry of the source. Where no end group is shown, it is not given here.

How the values were obtained:
GFP-p19^Arf = biological target: T1, GFP-p19^Arf (Mus musculus, UniProt Q64364); assay: Nuclear microinjection and live cell imaging of Texas Red labeled Hdm2 constructs in NIH 3T3 cells lacking Arf; assay type: cell-based; settings: NIH 3T3 Arf-/- cells, nuclear microinjection
T1 construct: expressed in transfected cells; host or cells: NIH 3T3 Arf-/- cells
T1 sequence (Q64364 1-169): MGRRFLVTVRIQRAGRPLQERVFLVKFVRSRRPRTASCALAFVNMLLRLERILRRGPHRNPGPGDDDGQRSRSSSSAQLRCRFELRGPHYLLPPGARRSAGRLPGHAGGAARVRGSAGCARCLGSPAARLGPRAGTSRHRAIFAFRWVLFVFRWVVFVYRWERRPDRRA
Method: Proteins for fluorescence microimaging studies were covalently modified using an amine-reactive, sulfosuccinimidyl ester of Texas Red™ (Molecular Probes, Inc., Cat. # C-1171). In brief, purified Hdm2-derived proteins were dialyzed into 100 mM sodium bicarbonate buffer, pH 8.3 at 2-4 mg/ml. The Texas Red™ dye was dissolved in dimethylsulfoxide at 10 mg/ml. Protein and dye 3:1 (vol:vol) were reacted for 1 hour at room temperature followed by purification using size-exclusion chromatography (NAP 5 G-25 columns, Amersham Pharmacia Biotech, Inc.). Labeled protein bands migrated more slowly than unlabeled protein in SDS-polyacrylamide gels consistent with the covalent attachment of dye.
NIH 3T3 Arf^−/− cells passage 10-15 were cultured in Dulbecco's modified Eagle's medium (Dulbecco's modified Eagle's medium (DMEM); Gibco-Invitrogen, Inc.), 10% fetal bovine serum (FBS) at 37° C., 7% CO2. 24 hours prior to transfection, cells were plated on 35 mm dishes coated with poly-D-Lysine (Mattek, Corp.) at a density of 3×10^4 cells per dish. Cells were transfected with a pcDNA plasmid (Invitrogen) containing the GFP-p19^ARF fusion protein using Fugene-6 (Roche Molecular Biochemicals, Inc.) in media according to the protocol supplied by the manufacturer. Sixteen hours post-transfection, the transfection media was refreshed with DMEM, 10% FBS and the cells were allowed to recover for four hours. […] An Axiovert 135 TV inverted fluorescence microscope with an automated stage controller (Carl Zeiss, Inc.) and circulating water bath heater (Fisher) was used for both microinjection and imaging. […]
Hdm2 deletion constructs tagged with a fluorescent label (Texas Red™) were microinjected into the nucleus of NIH 3T3 cells. importantly, the NIH 3T3 cell line used lacks the gene for Arf. […] A covalently bound fluorescent label was used to detect Hdm2 fragments instead of immuno fluorescence to avoid nonspecific background staining and staining variability due to differential antibody reactivity. […]

mArfN37 = biological target: T2, mArfN37 (Mus musculus, UniProt Q64364); assay: SPR binding of Hdm2 constructs and Hdm2 peptides to immobilized His-tagged mArfN37
T2 construct: An N-terminal fragment of mouse p19^Arf corresponding to residues 1-37 (mArfN37) was purified in a similar manner; made in house
T2 sequence (Q64364 1-37 limits assumed): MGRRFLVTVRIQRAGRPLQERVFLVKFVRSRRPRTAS
Method: (§1) Binding studies were performed using a Biacore 3000 surface plasmon resonance (SPR) instrument (Biacore, Inc.). A Tetra-His™ Antibody (Qiagen, Inc.; Cat. #34670) was covalently attached to a carboxymethylated gold surface (C-1 chip; Biacore, Inc.). The carboxymethyl groups on the surface were activated with N-ethyl-N′-(3-dimethylaminopropyl) carbodiimide (EDC) and N-hydroxysuccinimide (NHS) and the antibody was attached at pH 7.4 in 20 mM sodium phosphate buffer, 150 mM NaCl (PBS). Reactive sites remaining on the surface were blocked by reaction with ethanolamine. […] Binding was measured by flowing the non-His-tagged analyte through the reference and ligand-containing flow cells in sequence. […] Changes in the SPR response due to solvent differences and the injection process were monitored by injection of HBS-N buffer alone. […]
It has been previously shown that a fragment of mouse p19^Arf containing the N-terminal 37 amino acids (mArfN37) can (i) bind Hdm2, (ii) cause the relocalization of Hdm2 to nucleoli, and (iii) induce cell cycle arrest in MEFs [see, U.S. patent application Ser. No. 09/480,718, Filed Jan. […] However, because mArfN37 is a relatively small polypeptide, it was determined whether it could bind a correspondingly small segment of Hdm2. […]

Hdm2 210-304 = biological target: T3, Hdm2 210-304 (Homo sapiens, UniProt Q00987); assay: SPR binding of Arf library peptides to immobilized His-tagged Hdm2 210-304; settings: 15 amino acid library peptides, binding for 10 minutes
T3 construct: poly-His (thrombin-cleavable, from pET28a) (cleaved yes); made in house; host or cells: E. coli BL21 (DE3)
Method: as §1
Two libraries of peptides 15 amino acids in length were synthesized based on the sequence of exon 1β of mouse p19^Arf and the entire sequence of human p14^Arf. […] The ability of these peptides to bind Hdm2 fragments was determined using the surface plasmon resonance (SPR) technique with a Biacore 3000 instrument. […] Relative binding affinity was judged on the basis of the maximal SPR signal detected after binding for 10 minutes.

T3 sequence (Q00987 210-304): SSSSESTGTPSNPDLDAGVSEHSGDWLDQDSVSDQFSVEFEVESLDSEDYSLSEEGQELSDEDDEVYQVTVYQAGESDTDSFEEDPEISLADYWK

Row | Substance | binding to Hdm2 210-304 (maximal SPR signal) (Hdm2 210-304) | localization of Texas Red labeled Hdm2 construct when GFP-p19^Arf is expressed (GFP-p19^Arf) | further results
1 | Hdm2 210-304: Fragment of Hdm2 corresponding to residues 210-304 of SEQ ID NO:8 |  | co-localized within nucleoli; also recorded: nucleolar localization | localization of Texas Red labeled Hdm2 construct in cells that did not express Arf (GFP-p19^Arf): evenly dispersed in the nucleoplasm; binding to His-tagged mArfN37 immobilized on the SPR biosensor surface (mArfN37; His-mArfN37 captured by covalently linked His antibody): bind tightly
2 | Hdm2 277-491: Texas Red labeled Hdm2 deletion construct containing residues 277-491 |  | nucleolar localization | 
3 | human Arf residues 86-100: 15 amino acid human p14^Arf library peptide spanning residues 86-100, contains the NoLS RRPR (LRRPRHSHPTRARRC; not fully specified (N-terminus, C-terminus); UniProt Q8N726 86-100, looked up, fragment) | binds |  | 
4 | mouse p19^Arf residues 31-45: 15 amino acid mouse p19^Arf library peptide spanning residues 31-45, contains the RRPR motif (RRPRTASCALAFVNM; UniProt Q64364 31-45, looked up, fragment) | bind |  | 
5 | residues 290-304 of SEQ ID NO:8: short synthetic Hdm2 peptide containing residues 290-304 of SEQ ID NO:8 (SFEEDPEISLADYWK; listed as Homo sapiens) |  |  | relative binding affinity for mArfN37 (SPR) (mArfN37; short synthetic Hdm2 peptides, 15 amino acids): modest affinity
